# Data from PMC7545097, “Mapping the native interaction surfaces of PREP1 with PBX1 by cross-linking mass-spectrometry and mutagenesis” (Scientific Reports, 2020).
# T1: PBX1 with substitution of both 204 and 211 residues (I204A/I211A) (human, UniProt P40424 1-430, I204A | I211A)
# T1 construct: PBX1, residues 1-430; source: E. coli, purified
# T1 sequence (looked up): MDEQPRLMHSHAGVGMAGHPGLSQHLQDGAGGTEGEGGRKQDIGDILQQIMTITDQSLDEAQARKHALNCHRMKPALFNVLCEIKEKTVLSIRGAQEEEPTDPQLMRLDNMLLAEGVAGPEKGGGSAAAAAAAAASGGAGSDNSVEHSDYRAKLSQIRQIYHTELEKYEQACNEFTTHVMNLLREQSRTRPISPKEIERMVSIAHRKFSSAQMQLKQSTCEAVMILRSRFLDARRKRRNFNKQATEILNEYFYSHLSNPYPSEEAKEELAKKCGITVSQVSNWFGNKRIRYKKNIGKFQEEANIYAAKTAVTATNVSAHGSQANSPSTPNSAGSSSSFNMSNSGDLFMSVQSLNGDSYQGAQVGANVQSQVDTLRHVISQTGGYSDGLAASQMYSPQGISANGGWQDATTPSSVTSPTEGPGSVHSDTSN
# T2: PBX1 I197A (human, UniProt P40424 1-430, I197A)
# T2 construct: PBX1, residues 1-430; source: E. coli, purified
# T2 sequence (looked up): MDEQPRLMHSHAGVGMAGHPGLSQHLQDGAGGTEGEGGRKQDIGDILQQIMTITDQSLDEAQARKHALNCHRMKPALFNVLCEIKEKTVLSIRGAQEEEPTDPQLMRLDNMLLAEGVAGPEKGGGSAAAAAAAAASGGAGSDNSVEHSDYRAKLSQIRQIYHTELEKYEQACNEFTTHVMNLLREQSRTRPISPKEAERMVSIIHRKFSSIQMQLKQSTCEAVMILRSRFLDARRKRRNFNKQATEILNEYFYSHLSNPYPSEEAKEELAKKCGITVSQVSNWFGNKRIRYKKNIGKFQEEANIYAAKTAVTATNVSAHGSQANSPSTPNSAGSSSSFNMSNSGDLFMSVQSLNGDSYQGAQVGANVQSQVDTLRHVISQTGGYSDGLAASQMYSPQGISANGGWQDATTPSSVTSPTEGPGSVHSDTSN
# T3: N-terminal GST-fused wild-type PREP1 (UniProt P55347 1-436)
# T3 construct: PREP1 (PKNOX1), residues 1-436; Detected through GST in the ELISA; also called GST-fused PREP1; source: E. coli, purified; not shown: GST, N-terminal, kept
# T3 sequence (looked up): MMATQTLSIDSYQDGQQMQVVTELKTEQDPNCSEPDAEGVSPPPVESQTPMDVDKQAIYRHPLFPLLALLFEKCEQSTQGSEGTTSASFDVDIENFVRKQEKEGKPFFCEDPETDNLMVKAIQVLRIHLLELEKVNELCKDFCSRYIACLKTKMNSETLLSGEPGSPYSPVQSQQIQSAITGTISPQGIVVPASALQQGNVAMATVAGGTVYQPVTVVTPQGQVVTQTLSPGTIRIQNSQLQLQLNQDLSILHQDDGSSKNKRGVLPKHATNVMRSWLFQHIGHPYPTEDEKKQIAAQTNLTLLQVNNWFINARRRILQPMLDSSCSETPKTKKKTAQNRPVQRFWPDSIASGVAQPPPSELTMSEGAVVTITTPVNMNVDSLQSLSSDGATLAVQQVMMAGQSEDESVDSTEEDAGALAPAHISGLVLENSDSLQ
# Experiments:
# [1] = target: double or triple mutants (L77A/V80A, L77A/I84A, V80A/L81A, L77A/V80A/L81A) of PBX1; assay: time-resolved fluorescence immunoassay (TR-FIA); plate coated with monoclonal anti-PBX1; PBX1 pre-incubated with PREP1 or MEIS1 for 1 h on ice, 10 µg/mL in 1% BSA PBS, 1 h at room temperature on the plate; detected with anti-PREP1 or biotinylated anti-MEIS1/2 and Eu^3+ conjugates; normalised to the wild-type protein taken as 1
# PBX1Δ197-204 (human) = PBX1Δ197-204 (human) (UniProt P40424); assay: as above
# [2] = target: single mutations of most hydrophobic residues (V80, L81 and I84) of PBX1; assay: as above
# [3] = target: T1, PBX1 with substitution of both 204 and …; assay: as above; details: both partners purified
# PBX1 I197A = target: T2, PBX1 I197A; assay: as above; details: both partners purified
# [4] = target: T3, N-terminal GST-fused wild-type PREP1; assay: ELISA; PBX1 wild-type coated at 0.1 µM in 100 mM Tris–HCl pH 7.5; GST-fused proteins at 0.23 nM to 0.5 µM, 1 h at 37 °C; anti-GST detection; GST signal subtracted; one-site binding model; details: both partners purified
Binder,binding relative to wild type [1] [%],binding relative to wild type (PBX1Δ197-204 (human)) [%],binding relative to wild type [2] [%],binding relative to wild type [3] [%],binding relative to wild type (PBX1 I197A) [%],Kd [4] [nM]
"PREP1_(1-436), wild-type recombinant (TR-FIA) (natural protein, UniProt P55347 1-436, looked up, also called wild-type PREP1; PKNOX1; source: E. coli, purified) MMATQTLSIDSYQDGQQMQVVTELKTEQDPNCSEPDAEGVSPPPVESQTPMDVDKQAIYRHPLFPLLALLFEKCEQSTQGSEGTTSASFDVDIENFVRKQEKEGKPFFCEDPETDNLMVKAIQVLRIHLLELEKVNELCKDFCSRYIACLKTKMNSETLLSGEPGSPYSPVQSQQIQSAITGTISPQGIVVPASALQQGNVAMATVAGGTVYQPVTVVTPQGQVVTQTLSPGTIRIQNSQLQLQLNQDLSILHQDDGSSKNKRGVLPKHATNVMRSWLFQHIGHPYPTEDEKKQIAAQTNLTLLQVNNWFINARRRILQPMLDSSCSETPKTKKKTAQNRPVQRFWPDSIASGVAQPPPSELTMSEGAVVTITTPVNMNVDSLQSLSSDGATLAVQQVMMAGQSEDESVDSTEEDAGALAPAHISGLVLENSDSLQ",30 to 40,65,40 to 60,~50,~65,–
"PBX1_(1-430), wild-type recombinant (natural protein, human, UniProt P40424 1-430, looked up, also called wild-type PBX1; purified recombinant human PBX1; source: E. coli, purified) MDEQPRLMHSHAGVGMAGHPGLSQHLQDGAGGTEGEGGRKQDIGDILQQIMTITDQSLDEAQARKHALNCHRMKPALFNVLCEIKEKTVLSIRGAQEEEPTDPQLMRLDNMLLAEGVAGPEKGGGSAAAAAAAAASGGAGSDNSVEHSDYRAKLSQIRQIYHTELEKYEQACNEFTTHVMNLLREQSRTRPISPKEIERMVSIIHRKFSSIQMQLKQSTCEAVMILRSRFLDARRKRRNFNKQATEILNEYFYSHLSNPYPSEEAKEELAKKCGITVSQVSNWFGNKRIRYKKNIGKFQEEANIYAAKTAVTATNVSAHGSQANSPSTPNSAGSSSSFNMSNSGDLFMSVQSLNGDSYQGAQVGANVQSQVDTLRHVISQTGGYSDGLAASQMYSPQGISANGGWQDATTPSSVTSPTEGPGSVHSDTSN",–,–,–,–,–,18 ± 4
